In patent US20190134064A1, “SELECTIVELY DEGLYCOSYLATED VITAMIN D-BINDING PROTEIN (GCMAF), CHOLECALCIFEROL (CALCIOL), AND PRODUCTION METHOD” (HG PHARMA GMBH, priority 2016, published 2019):

B1: GcMAF-calcitriol: comparative complex; same production method carried out with calcitriol instead of cholecalciferol (protein, UniProt P02774 17-474, looked up)
Vitamin D-binding protein: LERGRDYEKNKVCKEFSHLGKEDFTSLSLVLYSRKFPSGTFEQVSQLVKEVVSLTEACCAEGADPDCYDTRTSALSAKSCESNSPFPVHPGTAECCTKEGLERKLCMAALKHQPQEFPTYVEPTNDEICEAFRKDPKEYANQFMWEYSTNYGQAPLSLLVSYTKSYLSMVGSCCTSASPTVCFLKERLQLKHLSLLTTLSNRVCSQYAAYGEKKSRLSNLIKLAQKVPTADLEDVLPLAEDITNILSKCCESASEDCMAKELPEHTVKLCDNLSTKNSKFEDCCQEKTAMDVFVCTYFMPAAQLPELPDVELPTNKDVCDPGNTKVMDKYTFELSRRTHLPEVFLSKVLEPTLKSLGECCDVEDSTTCFNAKGPLLKKELSSFIDKGQELCADYSENTFTEYKKKLAERLKAKLPDATPTELAKLVNKHSDFASNCCSINSPPLYCDSEIDAELKNIL
modifications: deglycosylated (GcMAF); complexed with calcitriol
notes: comparative complex; same production method carried out with calcitriol instead of cholecalciferol
B2: Gc-calcidiol: complex of vitamin D-binding protein (Gc) and calcidiol (protein, UniProt P02774 17-474, looked up)
Vitamin D-binding protein: LERGRDYEKNKVCKEFSHLGKEDFTSLSLVLYSRKFPSGTFEQVSQLVKEVVSLTEACCAEGADPDCYDTRTSALSAKSCESNSPFPVHPGTAECCTKEGLERKLCMAALKHQPQEFPTYVEPTNDEICEAFRKDPKEYANQFMWEYSTNYGQAPLSLLVSYTKSYLSMVGSCCTSASPTVCFLKERLQLKHLSLLTTLSNRVCSQYAAYGEKKSRLSNLIKLAQKVPTADLEDVLPLAEDITNILSKCCESASEDCMAKELPEHTVKLCDNLSTKNSKFEDCCQEKTAMDVFVCTYFMPAAQLPELPDVELPTNKDVCDPGNTKVMDKYTFELSRRTHLPEVFLSKVLEPTLKSLGECCDVEDSTTCFNAKGPLLKKELSSFIDKGQELCADYSENTFTEYKKKLAERLKAKLPDATPTELAKLVNKHSDFASNCCSINSPPLYCDSEIDAELKNIL
modifications: complexed with calcidiol
B3: GcMAF, purchased from Metavectrum, Germany: GcMAF purchased from Metavectrum, Germany (protein, UniProt P02774 17-474, looked up)
Vitamin D-binding protein: LERGRDYEKNKVCKEFSHLGKEDFTSLSLVLYSRKFPSGTFEQVSQLVKEVVSLTEACCAEGADPDCYDTRTSALSAKSCESNSPFPVHPGTAECCTKEGLERKLCMAALKHQPQEFPTYVEPTNDEICEAFRKDPKEYANQFMWEYSTNYGQAPLSLLVSYTKSYLSMVGSCCTSASPTVCFLKERLQLKHLSLLTTLSNRVCSQYAAYGEKKSRLSNLIKLAQKVPTADLEDVLPLAEDITNILSKCCESASEDCMAKELPEHTVKLCDNLSTKNSKFEDCCQEKTAMDVFVCTYFMPAAQLPELPDVELPTNKDVCDPGNTKVMDKYTFELSRRTHLPEVFLSKVLEPTLKSLGECCDVEDSTTCFNAKGPLLKKELSSFIDKGQELCADYSENTFTEYKKKLAERLKAKLPDATPTELAKLVNKHSDFASNCCSINSPPLYCDSEIDAELKNIL
modifications: selectively deglycosylated (GcMAF)
B4: GcMAF, produced as described: selectively deglycosylated vitamin D-binding protein, self-produced, with final filtration via a 100,000 Da filter (protein, UniProt P02774 17-474, looked up)
Vitamin D-binding protein: LERGRDYEKNKVCKEFSHLGKEDFTSLSLVLYSRKFPSGTFEQVSQLVKEVVSLTEACCAEGADPDCYDTRTSALSAKSCESNSPFPVHPGTAECCTKEGLERKLCMAALKHQPQEFPTYVEPTNDEICEAFRKDPKEYANQFMWEYSTNYGQAPLSLLVSYTKSYLSMVGSCCTSASPTVCFLKERLQLKHLSLLTTLSNRVCSQYAAYGEKKSRLSNLIKLAQKVPTADLEDVLPLAEDITNILSKCCESASEDCMAKELPEHTVKLCDNLSTKNSKFEDCCQEKTAMDVFVCTYFMPAAQLPELPDVELPTNKDVCDPGNTKVMDKYTFELSRRTHLPEVFLSKVLEPTLKSLGECCDVEDSTTCFNAKGPLLKKELSSFIDKGQELCADYSENTFTEYKKKLAERLKAKLPDATPTELAKLVNKHSDFASNCCSINSPPLYCDSEIDAELKNIL
modifications: selectively deglycosylated (GcMAF)
B5: GcMAF-calciol: dimeric complex of a selectively deglycosylated vitamin D-binding protein (GcMAF) and cholecalciferol (calciol) (protein, UniProt P02774 17-474, looked up)
Vitamin D-binding protein: LERGRDYEKNKVCKEFSHLGKEDFTSLSLVLYSRKFPSGTFEQVSQLVKEVVSLTEACCAEGADPDCYDTRTSALSAKSCESNSPFPVHPGTAECCTKEGLERKLCMAALKHQPQEFPTYVEPTNDEICEAFRKDPKEYANQFMWEYSTNYGQAPLSLLVSYTKSYLSMVGSCCTSASPTVCFLKERLQLKHLSLLTTLSNRVCSQYAAYGEKKSRLSNLIKLAQKVPTADLEDVLPLAEDITNILSKCCESASEDCMAKELPEHTVKLCDNLSTKNSKFEDCCQEKTAMDVFVCTYFMPAAQLPELPDVELPTNKDVCDPGNTKVMDKYTFELSRRTHLPEVFLSKVLEPTLKSLGECCDVEDSTTCFNAKGPLLKKELSSFIDKGQELCADYSENTFTEYKKKLAERLKAKLPDATPTELAKLVNKHSDFASNCCSINSPPLYCDSEIDAELKNIL
modifications: deglycosylated (GcMAF); complexed with cholecalciferol

Experiments:
[1] = tested on: Peritoneal mouse cells; experiment: Phagocytosis activation (phagocytosis index, opsonized sheep red blood cells); type: cell-based; details: for phagocytic activity (comparison in words): compared with GcMAF-calcitriol or GcMAF alone; for Macrophage activity: phagocytosis index, three hours of drug treatment, opsonized SRBC cultured for 90 minutes, 250 macrophages counted
Protocol: Phagocytosis activation was determined as described by Hammarstrom S and Kabat EA in “Studies on specificity and binding properties of the blood group A reactive hemagglutinin from Helix pomatia”, Biochemistry 10: 1684-1692, 1971.
Peritoneal mouse cells were coated in a 24-well plate onto cover glasses. After three hours of drug treatment, the cultures were tested for phagocytic activity. Sheep red blood cells (SRBC) were opsonized using hemolytic rabbit serum (anti-sheep red blood C12HSB cells, Serotec Ltd. England). Opsonized SRBC (0.5%) in RPMI 1640 (serum-free) were layered onto each macrophage-coated cover glass and cultured for 90 minutes. The non-internalized erythrocytes were lyzed by immersing the cover glass in a hypotonic solution (⅕ PBS). The macrophages were fixed with methanol, air-dried, and Giemsa stained. The number of phagocytosed erythrocytes per cell was microscopically determined; 250 macrophages were counted for each data point. The data are expressed as a phagocytosis index, which is defined as the percentage of macrophages with engulfed erythrocytes multiplied by the average number of erythrocytes per macrophage.

[2] = tested on: monocytes from human whole blood; experiment: Formation of superoxide radical anions; type: cell-based; set-up: Superoxide activity: unit not given here; details: for Superoxide activity: test substance 50 pg/ml, 3 h incubation; for formation of superoxide radical anions (comparison in words): compared with the other substances tested
Protocol: Determination of the formation of superoxide radical anions in monocytes from human whole blood was carried out as follows:
Isolation of peripheral mononuclear cells is carried out by density gradient centrifugation from heparinized whole blood. The blood is diluted 1:2 with PBS (without Ca/Mg) and layered onto 15 ml of Histopaque-1077. After this, the cell suspension is centrifuged for 30 min at 700×g and 20° C. The interphase with the mononuclear cells is carefully removed with a Pasteur pipette, made up with 30 ml of PBS (without Ca/Mg), and centrifuged for 5 min at 350×g. The supernatant is decanted, and the cells are taken up in RPMI 1640 medium and counted in the flow cytometer. The cells are adjusted to 10^5 monocytes/ml. For the test batch, 1 ml of cell suspension is pipetted into each 5 ml tube. LPS 100 ng/ml is used as a control. The test substance (GcMAF, GcMAF-calciol or GcMAF-calcitriol) is used in a concentration of 50 pg/ml. The cells are incubated for a total of 3 h in the CO2 incubator. 15 min before the end of incubation, 5 μl each of CD45-V450 antibody and 1 μl of a 1 mM MitoSOX stock solution are added. After this, the cell suspension is made up with 2 ml each of RPMI medium and centrifuged for 5 min at 350×g at room temperature. The supernatant is decanted, and the cells are resuspended in 500 μl of RPMI medium. The cells are measured and analyzed in the flow cytometer. Evaluation is carried out based on the average fluorescence intensity, as described by Saharuddin Bin Mohamad, Hideko Nagasa Wa, Yoshihiro Uto, and Hitoshi Hori in “Preparation of Gc Protein-Derived Macrophage Activating Factor (GcMAF) and its Structural Characterization and Biological Activities”, Anticancer Research 22: 4297-4300 (2002).
Superoxide formation assay
The method used was a modified version of that described by Johnston et al. In brief, after three-hour treatment of the samples, the plates were washed twice with PBS (-) and once with Krebs-Ringer phosphate buffer, pH 7.4, 1.5 ml of 50 μM cytochrome C in Krebs-Ringer phosphate buffer was added, and phorbol myristate acetate (PMA) was added to a final concentration of 5 μg/ml in each well and cultured for 90 minutes in a moistened incubator.
The reaction was stopped using an ice bath. The cultured medium was placed in an Eppendorf tube and centrifuged at 8000 g. The optical density of the supernatant was spectrometrically determined at 550 nm with reference at 540 nm (U-2000, Hitachi) using mixtures of plates without cells as a blank measurement. The concentration of reduced cytochrome C was determined using the equation E550nm=[…].

[3] = tested on: receptor sites of the ELISA test; experiment: Binding to the receptor sites of the ELISA test for vitamin D; details: ELISA test selective for calcidiol
Text: The standard test for vitamin D in the blood, the ELISA test, is selective for calcidiol (which has an OH group at position 25). […] The same applies for the complex GcMAF-calcitriol.

[4] = Vitamin D content in the blood after oral administration; type: in vivo
Text: (§1) The complex according to the invention can be orally administered. […] Moreover, the complex according to the invention is not toxic.

[5] = Toxicity
Text: as §1

[6] = tested on: monocytic cells; experiment: Monocytic cells after oral administration; type: in vivo

Molecule	phagocytic activity (comparison in words) [1]	Macrophage activity [1]	Superoxide activity [2]	binding to the receptor sites of the ELISA test [3]	formation of superoxide radical anions (comparison in words) [2]	formation of superoxide radical anions (comparison in words) ([2]; listed as complex according to the invention)	vitamin D content in the blood ([4]; 12 h after oral administration, 35.9 nM before administration)	absorption in oral administration ([4]; oral administration)	toxicity [5]	monocytic cells, subsequently converted into macrophages [6]
B1	virtually identical to the phagocytic activity of GcMAF alone	73.2	188	does not bind						
B2				does not bind						
B3		68	150							
B4		73.0	199							
B5	significantly higher	83.5	142	does indeed bind	lower	lowest of all of the substances tested	44.25 nM	absorbed by the body in oral administration	not toxic	significant increase
